# Laboratory results: the supplement of paper PMC10126150
# ± gives the standard deviation of the averaged measurements.
# System: ATP
# Test: switch fluorescence ratio, 500 uM ATP over buffer (Cy3 cluster intensity, sum of 5 cycles each) (fold (ratio)); higher = stronger signal-on switching upon ATP binding; sequences stand for … in TCGTCGGCAGCGTCAGATGTGTATAAGAGACAGTTTTTTTTTTTTTTTTTTTTTTTTT…TC
# Conditions: aptamer strand: ATP DNA aptamer (quencher-CACCTGGGGGAGTATTGCGGAGGAAGG + anchor), 100 nM annealed; ATP concentration: 500 uM
# Method in brief: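 Per cluster, summed Cy3 intensity from the target cycles was divided by that from the buffer cycles to give the fluorescence ratio, then averaged per switch-domain sequence. Clusters outside 100-1000 RFU were excluded. The Cy3-labelled switching-strand clusters, on a modified Illumina MiSeq flow-cell, were annealed to 100 nM quencher-labelled ATP aptamer and imaged in selection buffer, then after 15 min with 500 uM ATP at 22 °C, for five cycles with NaOH stripping and re-annealing between them.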
# 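Note: ATP exposure 15 min at 22 °C before imaging.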
row,Sequence,switch fluorescence ratio
1,GCAGTCATTA,1.037 ± 0.0019
2,GCAGTGCCTA,0.993 ± 0.044
3,GCAGTGGTAC,2.41 ± 0.086
4,GCAGTTGGGT,0.986 ± 0.028
5,GCATAGAAAA,0.982 ± 0.015
6,GCATAGCCTG,0.98 ± 0.034
7,GCATAGTCTG,1.038 ± 0.0042
8,GCATAGTGGT,1.008 ± 0.01
9,GCATATCGGG,1.02 ± 0.017
10,GCATATTTTT,1.026 ± 0.0032
11,GCATCAAAGG,0.995 ± 0.013
12,GCATCCGGCG,1.04 ± 0.081
13,GCATCGGGCC,0.981 ± 0.026
14,GCATCTTCAC,1.0378 ± 0.00044
15,GCATCTTGGG,1 ± 0.029
16,GCATGACTGT,1.01 ± 0.024
17,GCATGATGGA,0.975 ± 0.022
18,GCATGCGGCT,1.03 ± 0.1
19,GCATGGAGTA,1.02 ± 0.029
20,GCATGGCGGC,1.01 ± 0.019
21,GCATGGGGGG,1.02 ± 0.042
22,GCATGTAGAT,0.998 ± 0.047
23,GCATGTGTTC,0.995 ± 0.038
24,GCATTAGTAT,0.935 ± 0.044
25,GCATTCCGTT,1.02 ± 0.011

row,Sequence,switch fluorescence ratio
1,GCATTGGGGC,0.9893 ± 0.0098
2,GCATTGGGTG,1.11 ± 0.054
3,GCATTGGTAC,1.17 ± 0.071
4,GCATTGGTGG,1.03 ± 0.019
5,GCATTGTGTG,0.991 ± 0.037
6,GCATTGTTTG,0.995 ± 0.034
7,GCATTTATGG,0.949 ± 0.022
8,GCATTTCATG,0.987 ± 0.021
9,GCATTTGCTT,1.01 ± 0.019
10,GCATTTTTCT,0.982 ± 0.031
11,GCATTTTTTC,1.03 ± 0.019
12,GCCAATTACG,1.11 ± 0.03
13,GCCAATTATT,0.991 ± 0.031
14,GCCACACTAG,1.06 ± 0.032
15,GCCACGGGGA,1.0073 ± 0.00078
16,GCCAGAGGGG,1.19 ± 0.34
17,GCCAGCAAGC,2.25 ± 0.34
18,GCCAGCATGG,1.003 ± 0.0046
19,GCCAGCGATC,2.23 ± 0.81
20,GCCAGGGATT,1.01 ± 0.029
21,GCCAGGGGGT,1.08 ± 0.12
22,GCCAGGGTCA,1.025 ± 0.0066
23,GCCATACGCG,1.03 ± 0.016
24,GCCATGACGG,0.988 ± 0.027
25,GCCCAAGGGG,1.05 ± 0.091

row,Sequence,switch fluorescence ratio
1,GCCCATAGAC,1.12 ± 0.041
2,GCCCATAGGA,0.978 ± 0.094
3,GCCCCGGCTG,1.03 ± 0.045
4,GCCCCGGGTT,1.36 ± 0.37
5,GCCCGGCCAG,0.9693 ± 0.0062
6,GCCCGGGCAT,0.986 ± 0.013
7,GCCCGGGGGA,1.94 ± 1.3
8,GCCCGTATGG,1 ± 0.019
9,GCCCGTTCGG,1.01 ± 0.028
10,GCCCTAGTGT,1.13 ± 0.024
11,GCCCTGAGCG,1.011 ± 0.0066
12,GCCCTTAGCA,1.018 ± 0.0013
13,GCCGAAGGGG,1.004 ± 0.0035
14,GCCGAATATG,1.01 ± 0.015
15,GCCGACAAGC,1.05 ± 0.083
16,GCCGCCAGGG,1.26 ± 0.068
17,GCCGCGGGGA,1.04 ± 0.024
18,GCCGGATTGG,0.956 ± 0.021
19,GCCGGCTGTG,0.9902 ± 0.0018
20,GCCGGCTTTC,1.01 ± 0.048
21,GCCGGGACGC,1.05 ± 0.049
22,GCCGGGGCGC,1 ± 0.012
23,GCCGGTAGGG,0.98 ± 0.031
24,GCCGGTTCTG,1.06 ± 0.022
25,GCCGTCAGTT,0.9899 ± 0.0048

row,Sequence,switch fluorescence ratio
1,GCCGTGCGGG,0.978 ± 0.03
2,GCCGTTTTGG,1 ± 0.034
3,GCCTAAGTTT,0.986 ± 0.024
4,GCCTATGCAA,1.48 ± 0.021
5,GCCTATTTGG,0.998 ± 0.023
6,GCCTCAGACA,1.047 ± 0.0092
7,GCCTCAGGAT,0.996 ± 0.068
8,GCCTGAAAGC,0.9912 ± 0.0054
9,GCCTGAGATG,1.03 ± 0.017
10,GCCTGCTAGC,1.008 ± 0.007
11,GCCTGCTTGC,1.03 ± 0.053
12,GCCTGGTTTT,0.979 ± 0.024
13,GCCTTAAAGG,1.005 ± 0.0029
14,GCCTTAACGG,1.01 ± 0.021
15,GCCTTACGGT,1.04 ± 0.038
16,GCCTTATATA,0.9952 ± 0.0063
17,GCCTTCAAGC,1.04 ± 0.054
18,GCCTTGATGG,1.01 ± 0.021
19,GCCTTGTTCA,0.993 ± 0.022
20,GCCTTTGGCA,0.962 ± 0.013
21,GCGAAAAAGG,0.997 ± 0.035
22,GCGAAAAGAA,1.05 ± 0.054
23,GCGAAAGGT,0.9846 ± 0.0017
24,GCGAAGGTCT,1 ± 0.014
25,GCGAATCGTA,0.999 ± 0.049
